Results as given in patent US12252534 (Scripps Research, dated 2025).

Experiments:
[1] = target: T1, cynomolgus CD3 on cynomolgus T cells (HSC-F) (cynomolgus monkey, UniProt Q95LI5 22-198; Q95LI8 22-171; Q95LI7 23-181); test: flow cytometry titration on HSC-F cells
T1 construct: whole, on cells; also called cyCD3+; cell surface CD3 on cynomolgus (HSC-F) T cells
Source text: (§1) Flow cytometry was used to assess for potential differential binding to cell surface CD3 on human (Jurkat) and cynomolgus T cells as a result of the "de-immunization" process. […] After several washes, samples were acquired on a BD LSRII or BD Accuri C6 and analyzed using FlowJo software.

[2] = target: T2, human CD3 on human T cells (Jurkat) (human, UniProt P07766 23-207; P04234 22-171; P09693 23-182); test: flow cytometry titration on Jurkat cells
T2 construct: whole, on cells; also called huCD3+; cell surface CD3 on human (Jurkat) T cells
Source text: as §1

[3] = target: T3, recombinant human CD3 delta/epsilon complex (hu.CD3 d/e-Fc) (human, UniProt P04234 22-105; P07766 23-126); test: Octet (BLI), hu.CD3de-Fc captured on Fc sensor, conjugate as analyte; unit inferred, M implied
T3 construct: not shown: Fc portion
Experimental: (§2) Analytes were serially diluted 1.2× from 6 μg/mL to 1 μg/mL in the 1×PBS. 100 mM glycine (pH 2.87) regeneration solution, and 1×PBS for baseline stabilization was also prepared. Biosensor, ligand and analytes pair is following: (1) CH-1-antibodies-recombinant human or cynomolgus monkey CD3 delta/epsilon complex, (2) Fc-recombinant human or cynomolgus monkey CD3 delta/epsilon complex-antibodies (3) CH-1-antibodies-recombinant human or cynomolgus monkey PSMA; and (4) Ni-NTA-recombinant human or cynomolgus monkey PSMA-antibodies. Prior to the binding measurements, the sensor tips were pre-hydrated in 1×PBS for 30 min, followed by 1 cycles of pre-conditioning with 60-sec dips in glycine (pH 2.87). The sensor tips were then transferred to the ligand-containing wells for a 180-sec loading step. After a 120-sec baseline dip in 1×PBS, the binding kinetics were measured by dipping the ligand-coated sensors into the wells containing corresponding analyte at varying concentrations. The binding interactions were monitored over a 180-sec association period and followed by a 7.5 to 15-min dissociation period in new wells containing fresh 1×PBS.

[4] = target: T4, recombinant cynomolgus monkey CD3 delta/epsilon complex (cy.CD3 d/e-Fc) (cynomolgus monkey, UniProt Q95LI8 22-105; Q95LI5 22-117); test: Octet (BLI), cy.CD3 d/e-Fc captured on Fc sensor, conjugate as analyte; unit inferred, M implied
T4 construct: also called cynoCD3; not shown: Fc portion
Experimental: as §2

[5] = target: T4, recombinant cynomolgus monkey CD3 …; test: Octet (BLI), conjugate captured on CH1 sensor, cy.CD3 d/e-Fc as analyte; unit inferred, M implied
Experimental: as §2

[6] = target: T3, recombinant human CD3 delta/epsilon …; test: Octet (BLI), conjugate captured on CH1 sensor, hu.CD3 d/e-Fc as analyte; unit inferred, M implied
Experimental: as §2

[7] = target: T1, cynomolgus CD3 on cynomolgus T cells …; test: flow cytometry on HSC-F (cyCD3+) cells, detected with PE-conjugated anti-human kappa secondary antibody; control is the secondary antibody alone
Source text: (§3) Flow cytometry was used to test binding of conjugates to cell surface CD3 on human (Jurkat) and cynomolgus (HSC-F) T cells or PSMA on C4-2 cells.

[8] = target: T2, human CD3 on human T cells (Jurkat); test: flow cytometry on Jurkat (huCD3+) cells, detected with PE-conjugated anti-human kappa secondary antibody; control is the secondary antibody alone
Source text: as §3

T1 sequence (Q95LI5 22-198, chain 1 of 3): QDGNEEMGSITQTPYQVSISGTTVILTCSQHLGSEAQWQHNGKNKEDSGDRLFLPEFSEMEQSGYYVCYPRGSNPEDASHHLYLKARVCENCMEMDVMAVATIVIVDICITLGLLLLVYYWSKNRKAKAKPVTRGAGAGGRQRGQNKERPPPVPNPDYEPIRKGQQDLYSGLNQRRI
T1 sequence (Q95LI8 22-171, chain 2 of 3): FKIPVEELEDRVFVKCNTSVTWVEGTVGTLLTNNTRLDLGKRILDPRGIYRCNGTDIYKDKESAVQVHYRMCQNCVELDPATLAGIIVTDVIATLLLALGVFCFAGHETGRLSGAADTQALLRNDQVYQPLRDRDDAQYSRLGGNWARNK
T1 sequence (Q95LI7 23-181, chain 3 of 3): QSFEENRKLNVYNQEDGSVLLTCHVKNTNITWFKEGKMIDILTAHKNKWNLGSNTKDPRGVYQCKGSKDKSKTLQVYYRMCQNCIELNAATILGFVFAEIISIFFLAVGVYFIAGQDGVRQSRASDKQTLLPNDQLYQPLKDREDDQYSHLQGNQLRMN
T2 sequence (P07766 23-207, chain 1 of 3): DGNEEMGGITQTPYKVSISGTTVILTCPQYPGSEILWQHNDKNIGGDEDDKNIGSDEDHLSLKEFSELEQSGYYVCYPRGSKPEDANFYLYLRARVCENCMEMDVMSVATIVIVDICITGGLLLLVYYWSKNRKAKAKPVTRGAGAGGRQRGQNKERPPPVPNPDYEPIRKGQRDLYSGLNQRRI
T2 sequence (P04234 22-171, chain 2 of 3): as the sequence (Q95LI8 22-171, chain 2 of 3) above, with V5I, K15N, V20I, T32S, N33D, N34I, A64T, N74S, L83V, R141H counted along it
T2 sequence (P09693 23-182, chain 3 of 3): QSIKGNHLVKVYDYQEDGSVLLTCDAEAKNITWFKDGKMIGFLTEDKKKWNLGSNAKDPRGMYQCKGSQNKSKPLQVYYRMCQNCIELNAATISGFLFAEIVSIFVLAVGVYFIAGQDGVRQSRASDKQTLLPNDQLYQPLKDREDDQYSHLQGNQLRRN
T3 sequence (P04234 22-105, stated change not applied, chain 1 of 2): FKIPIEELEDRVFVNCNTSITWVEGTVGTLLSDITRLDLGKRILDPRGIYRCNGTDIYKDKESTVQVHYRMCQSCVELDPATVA
T3 sequence (P07766 23-126, stated change not applied, chain 2 of 2): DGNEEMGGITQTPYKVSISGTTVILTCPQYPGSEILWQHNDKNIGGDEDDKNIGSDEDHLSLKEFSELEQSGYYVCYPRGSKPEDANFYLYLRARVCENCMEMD
T4 sequence (Q95LI8 22-105, stated change not applied, chain 1 of 2): as the sequence (P04234 22-105, stated change not applied, chain 1 of 2) above, with I5V, N15K, I20V, S32T, D33N, I34N, T64A, S74N, V83L counted along it
T4 sequence (Q95LI5 22-117, stated change not applied, chain 2 of 2): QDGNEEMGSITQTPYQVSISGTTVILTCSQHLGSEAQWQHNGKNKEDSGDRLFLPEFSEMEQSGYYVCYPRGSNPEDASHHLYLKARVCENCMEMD

Binder | IC50 [1] | IC50 [2] | Kd [3] | Kd [6] | other results
huL5H2 (SEQ ID NOS: 40, 42), pAcF double mutant Fab, unconjugated (Fab, V domains shown, p-acetylphenylalanine (pAcF) in place of S205 (S205TAG); p-acetylphenylalanine (pAcF) in place of K141 (K141TAG), Expressed in E. coli with an orthogonal tRNA/synthetase; also called VL5 kappa 205TAG + H2 141TAG) VH: EVQLVESGGGLVQPGGSLKLSCAASGFTFNTYAMNWVRQASGKGLEWVARIRSKYNNYATYYADSVKDRFTISRDDSKNTLYLQMNSLKTEDTAVYYCVRHGNFGNSYVSWFAYWGQGTLVTVSS VL: QAVVTQEPSLTVSPGGTVTLTCRSSTGAVTTSNYANWVQQKPDHLFRGLIGGTNKRAPGTPARFSGSLLGDKAALTISGAQPEDEAEYYCALWYSNLWVFGGGTKLTVLK | 3.8 nM | 5.9 nM |  |  | 
huL5H2_DI-1×DUPA (SEQ ID NOS: 39, 44) (Fab, V domains shown, pAcF at position 141 conjugated by oxime to a DUPA-linker, De-immunized Fab with a single DUPA on the heavy chain; also called L5H2-DI-1X-DUPA; L5H2_DI-1xDUPA) VH: EVQLVESGGGLVQPGGSLRLSCAASGFTFNTYAMNWVRQAPGKGLEWVARIRSKYNNYATYYADSVKDRFTISRDDSKNTLYLQMNSLRAEDTAVYYCVRHGNFGNSYVSWFAYWGQGTLVTVSS VL: QAVVTQEPSLTVSPGGTVTLTCRSSTGAVTTSNYANWVQQKPDHLFRGLIGGTNKRAPGTPARFSGSLLGDKAALTISGAQPEDEAEYYCALWYSNLWVFGGGTKLTVLK |  |  | 21.2 nM | 4.83 nM | Kd [4]: 11.3 nM; Kd [5]: 3.29 nM
DI-huL5H2 (SEQ ID NOS: 40, 44), de-immunized pAcF mutant Fab, unconjugated (Fab, V domains shown, p-acetylphenylalanine (pAcF) at light chain position 205 (205TAG); p-acetylphenylalanine (pAcF) at heavy chain position 141 (141TAG), The heavy chain carries the de-immunizing mutations K19R, S41P, K89R and T90A relative to huL5H2; also called huL5H2_DI) VH: EVQLVESGGGLVQPGGSLRLSCAASGFTFNTYAMNWVRQAPGKGLEWVARIRSKYNNYATYYADSVKDRFTISRDDSKNTLYLQMNSLRAEDTAVYYCVRHGNFGNSYVSWFAYWGQGTLVTVSS VL: QAVVTQEPSLTVSPGGTVTLTCRSSTGAVTTSNYANWVQQKPDHLFRGLIGGTNKRAPGTPARFSGSLLGDKAALTISGAQPEDEAEYYCALWYSNLWVFGGGTKLTVLK | 3.4 nM | 4.6 nM |  |  | 
huL5H2_DI-2×DUPA (SEQ ID NOS: 40, 44) (Fab, V domains shown, pAcF at position 205 conjugated by oxime to p-TriA (DUPA-linker); pAcF at position 141 conjugated by oxime to p-TriA (DUPA-linker), De-immunized Fab with one DUPA on the heavy chain and one on the light chain; also called L5H2-DI-2X-DUPA; L5H2_DI-2xDUPA) VH: EVQLVESGGGLVQPGGSLRLSCAASGFTFNTYAMNWVRQAPGKGLEWVARIRSKYNNYATYYADSVKDRFTISRDDSKNTLYLQMNSLRAEDTAVYYCVRHGNFGNSYVSWFAYWGQGTLVTVSS VL: QAVVTQEPSLTVSPGGTVTLTCRSSTGAVTTSNYANWVQQKPDHLFRGLIGGTNKRAPGTPARFSGSLLGDKAALTISGAQPEDEAEYYCALWYSNLWVFGGGTKLTVLK |  |  | 11 nM | 5.13 nM | 
UCHT-1 (SEQ ID NOS: 84, 85) anti-CD3 Fab (Fab, V domains shown, The unconjugated UCHT-1 that was tested may carry pAcF residues; also called clone UCHT-1) VH: EVQLVESGGGLVQPGGSLRLSCAASGYSFTGYTMNWVRQAPGKGLEWVALINPYKGVSTYNQKFKDRFTISVDKSKNTAYLQMNSLRAEDTAVYYCARSGYYGDSDWYFDVWGQGTLVTVSS VL: DIQMTQSPSSLSASVGDRVTITCRASQDIRNYLNWYQQKPGKAPKLLIYYTSRLESGVPSRFSGSGSGTDYTLTISSLQPEDFATYYCQQGNTLPWTFGQGTKVEIKR |  |  |  |  | binding result [7]: no binding; binding result [8]: binds
